Source: the supplement of paper PMC10724198
± gives the standard deviation of the averaged measurements.

Assays:
Saccharomyces cerevisiae [1] = experiment: protein stability index of tFT-peptide fusion (C-terminal peptide) (PSI (0-1 scale)); higher = more stable (slower turnover)
Protocol: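 MPS profiling in S. cerevisiae of the tFT-X12 degron library: putative degron peptides plus stable controls, 12 aa, fused to the C-terminus of a sfGFP-mCherry timer. Cells are FACS-sorted into 8 mCherry/sfGFP bins and deep-sequenced. PSI runs from 0 (unstable) to 1 (stable). Backgrounds are wild type, das1Δ and doa10Δ at 30 °C, and wild type, das1Δ, cdc34-1 and cdc53-1 at 37 °C; 2-3 technical replicates each.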

Saccharomyces cerevisiae [2] = experiment: as above; conditions: genetic background: wild type; temperature: 30 C
[3] = genetic background: cdc34-1, temperature: 37 C
[4] = genetic background: cdc53-1, temperature: 37 C
[5] = genetic background: das1 deletion, temperature: 30 C
[6] = genetic background: das1 deletion, temperature: 37 C
[7] = genetic background: doa10 deletion, temperature: 30 C
[8] = genetic background: wild type, temperature: 30 C
[9] = genetic background: wild type, temperature: 37 C
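Also: PSI is a weighted mean of sequencing reads over stability bins, variants kept only with over 10 reads, mCherry proximal and sfGFP distal, peptide attached via GGGS linker.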

Sequence | protein stability index (Saccharomyces cerevisiae [1]; [3]) | protein stability index (Saccharomyces cerevisiae [1]; [4]) | protein stability index (Saccharomyces cerevisiae [1]; [5]) | protein stability index (Saccharomyces cerevisiae [1]; [6]) | protein stability index (Saccharomyces cerevisiae [1]; [7]) | protein stability index (Saccharomyces cerevisiae [1]; [8]) | protein stability index (Saccharomyces cerevisiae [1]; [9]) | protein stability index (Saccharomyces cerevisiae [2])
CVPAPCGRASCR | 0.697 ± 0.013 | 0.7301 ± 0.0034 | 0.64 ± 0.041 | 0.743 ± 0.0076 | 0.63 ± 0.0079 | 0.658 ± 0.018 | 0.706 ± 0.022 | 0.698 ± 0.016
CLLWVVWSLLWV | 0.346 ± 0.0041 | 0.432 ± 0.011 | 0.283 ± 0.035 | 0.4506 ± 0.0035 | 0.269 ± 0.0094 | 0.257 ± 0.034 | 0.416 ± 0.0074 | 0.353 ± 0.095
KRLALVSCSICG | 0.569 ± 0.03 | 0.6459 ± 0.003 | 0.446 ± 0.025 | 0.6239 ± 0.002 | 0.321 ± 0.028 | 0.351 ± 0.031 | 0.583 ± 0.0087 | 0.4681 ± 0.0043
CLFSVLFPLFFR | 0.0858 ± 0.049 | 0.0347 ± 0.0022 | 0.137 ± 0.042 | 0.158 ± 0.016 | 0.6444 ± 0.0064 | 0.142 ± 0.0055 | 0.184 ± 0.073 | 0.214 ± 0.039
PLLLLLPSLLLV | 0.363 ± 0.027 | 0.413 ± 0.011 | 0.3 ± 0.029 | 0.439 ± 0.021 | 0.149 ± 0.0015 | 0.18 ± 0.017 | 0.248 ± 0.013 | 0.25 ± 0.025
QVVWAVPRICLV | 0.53508 ± 0.00047 | 0.567 ± 0.0099 | 0.438 ± 0.015 | 0.579 ± 0.0091 | 0.335 ± 0.015 | 0.358 ± 0.028 | 0.505 ± 0.019 | 0.445 ± 0.063
AITHVILLVTPL | 0.562 ± 0.02 | 0.5803 ± 0.0043 | 0.411 ± 0.025 | 0.61 ± 0.059 | 0.384 ± 0.0029 | 0.417 ± 0.022 | 0.552 ± 0.0087 | 0.507 ± 0.04
RVTEYHTKYKIV | 0.487 ± 0.13 | 0.673 ± 0.076 | 0.656 ± 0.025 | 0.728 ± 0.077 | 0.0697 ± 0.0072 | 0.0674 ± 0.021 | 0.0807 ± 0.021 | 0.153 ± 0.012
PPPPPPPSSSSL | 0.667 ± 0.041 | 0.735 ± 0.027 | 0.672 ± 0.017 | 0.722 ± 0.011 | 0.674 ± 0.013 | 0.696 ± 0.037 | 0.727 ± 0.03 | 0.388 ± 0.0099
SGLVHVLILGAC | 0.4899 ± 0.0043 | 0.5165 ± 0.0038 | 0.347 ± 0.038 | 0.5529 ± 0.0051 | 0.313 ± 0.0048 | 0.338 ± 0.033 | 0.506 ± 0.011 | 0.45 ± 0.0019
EVFLARKRSMVV | 0.593 ± 0.043 | 0.677 ± 0.058 | 0.537 ± 0.036 | 0.67627 ± 0.00012 | 0.175 ± 0.019 | 0.214 ± 0.015 | 0.418 ± 0.0088 | 0.341 ± 0.03
WSFYVVGRLLVN | 0.33 ± 0.031 | 0.383 ± 0.013 | 0.287 ± 0.024 | 0.45 ± 0.014 | 0.106 ± 0.0031 | 0.132 ± 0.0018 | 0.154 ± 0.015 | 0.124 ± 0.0045
LFVGLVSFRIGA | 0.563 ± 0.039 | 0.573 ± 0.014 | 0.428 ± 0.029 | 0.601 ± 0.0068 | 0.399 ± 0.018 | 0.419 ± 0.021 | 0.575 ± 0.0069 | 0.477 ± 0.029
GYRRCCHFLFTL | 0.671 ± 0.02 | 0.735 ± 0.035 | 0.622 ± 0.023 | 0.747 ± 0.00099 | 0.359 ± 0.023 | 0.375 ± 0.029 | 0.56 ± 0.0064 | 0.423 ± 0.034
ESRRGILFIYIN | 0.325 ± 0.049 | 0.601 ± 0.027 | 0.475 ± 0.025 | 0.647 ± 0.038 | 0.0808 ± 0.028 | 0.0867 ± 0.0055 | 0.0749 ± 0.024 | 0.13 ± 0.005
VGIVWELGCWMG | 0.365 ± 0.052 | 0.49 ± 0.03 | 0.325 ± 0.023 | 0.543 ± 0.023 | 0.2794 ± 0.00095 | 0.303 ± 0.021 | 0.508 ± 0.0067 | 0.425 ± 0.019
CMPVYYTVVIRL | 0.177 ± 0.052 | 0.102 ± 0.028 | 0.204 ± 0.029 | 0.294 ± 0.015 | 0.246 ± 0.021 | 0.159 ± 0.024 | 0.31 ± 0.021 | 0.296 ± 0.021
FFVWGVFLGVSW | 0.229 ± 0.033 | 0.264 ± 0.016 | 0.265 ± 0.043 | 0.406 ± 0.005 | 0.297 ± 0.015 | 0.25 ± 0.026 | 0.362 ± 0.0063 | 0.358 ± 0.012
ILCYVWLVFSGF | 0.225 ± 0.0092 | 0.311 ± 0.019 | 0.223 ± 0.029 | 0.382 ± 0.01 | 0.194 ± 0.0036 | 0.204 ± 0.032 | 0.369 ± 0.025 | 0.373 ± 0.022
FLLAIVRGVWLA | 0.15 ± 0.029 | 0.115 ± 0.0084 | 0.257 ± 0.034 | 0.339 ± 0.014 | 0.154 ± 0.01 | 0.104 ± 0.032 | 0.112 ± 0.0028 | 0.176 ± 0.014

Sequence | protein stability index (Saccharomyces cerevisiae [1]; [3]) | protein stability index (Saccharomyces cerevisiae [1]; [4]) | protein stability index (Saccharomyces cerevisiae [1]; [5]) | protein stability index (Saccharomyces cerevisiae [1]; [6]) | protein stability index (Saccharomyces cerevisiae [1]; [7]) | protein stability index (Saccharomyces cerevisiae [1]; [8]) | protein stability index (Saccharomyces cerevisiae [1]; [9]) | protein stability index (Saccharomyces cerevisiae [2])
GQFVISVRFLYE | 0.454 ± 0.045 | 0.503 ± 0.044 | 0.412 ± 0.024 | 0.5374 ± 0.0031 | 0.389 ± 0.0083 | 0.417 ± 0.024 | 0.516 ± 0.011 | 0.515 ± 0.068
RTRVRKTRIRTC | 0.624 ± 0.039 | 0.6934 ± 0.0022 | 0.637 ± 0.018 | 0.724 ± 0.015 | 0.234 ± 0.02 | 0.277 ± 0.0072 | 0.517 ± 0.011 | 0.392 ± 0.021
VSTVCLDFSPFL | 0.692 ± 0.065 | 0.7662 ± 0.0043 | 0.65 ± 0.018 | 0.781 ± 0.017 | 0.668 ± 0.0078 | 0.66 ± 0.007 | 0.73714 ± 5.4e-05 | 0.755 ± 0.043
LQSYIFSVRGIS | 0.707 ± 0.02 | 0.697 ± 0.018 | 0.601 ± 0.029 | 0.707 ± 0.029 | 0.418 ± 0.054 | 0.45 ± 0.046 | 0.638 ± 0.0012 | 0.533 ± 0.078
WSFPFFLLPFLF | 0.393 ± 0.0059 | 0.352 ± 0.0092 | 0.44 ± 0.022 | 0.5103 ± 0.0048 | 0.25 ± 0.0094 | 0.211 ± 0.014 | 0.305 ± 0.021 | 0.296 ± 0.034
VIVKSRTTLYIS | 0.49 ± 0.015 | 0.616 ± 0.0078 | 0.538 ± 0.013 | 0.613 ± 0.0096 | 0.092 ± 0.018 | 0.107 ± 0.018 | 0.193 ± 0.023 | 0.155 ± 0.0099
VLLLLGGIVCVM | 0.236 ± 0.01 | 0.227 ± 0.018 | 0.222 ± 0.024 | 0.412 ± 0.0065 | 0.206 ± 0.012 | 0.229 ± 0.018 | 0.395 ± 0.019 | 0.327 ± 0.026
PFFSSLKYRRDH | 0.598 ± 0.07 | 0.751 ± 0.014 | 0.6675 ± 0.0032 | 0.77 ± 0.02 | 0.117 ± 0.024 | 0.142 ± 0.023 | 0.197 ± 0.014 | 0.237 ± 0.051
LFHFPSWIFCLL | 0.562 ± 0.02 | 0.612 ± 0.029 | 0.55 ± 0.036 | 0.688 ± 0.015 | 0.24361 ± 0.00024 | 0.251 ± 0.014 | 0.308 ± 0.016 | 0.331 ± 0.0049
ICIFWLITGLWL | 0.465 ± 0.074 | 0.459 ± 0.026 | 0.336 ± 0.03 | 0.487 ± 0.019 | 0.304 ± 0.014 | 0.324 ± 0.013 | 0.4633 ± 0.0029 | 0.3884 ± 0.00079
VKVIILYKIIEV | 0.353 ± 0.045 | 0.494 ± 0.044 | 0.327 ± 0.029 | 0.5352 ± 0.0045 | 0.29 ± 0.0094 | 0.323 ± 0.027 | 0.549 ± 0.08 | 0.381 ± 0.038
PSPRRPPRSRFP | 0.651 ± 0.023 | 0.725 ± 0.028 | 0.653 ± 0.0072 | 0.7355 ± 0.0031 | 0.672 ± 0.03 | 0.654 ± 0.037 | 0.701 ± 0.017 | 0.732 ± 0.0084
FYAAILCLLFSC | 0.478 ± 0.037 | 0.512 ± 0.014 | 0.45 ± 0.035 | 0.546 ± 0.013 | 0.22913 ± 0.00013 | 0.265 ± 0.021 | 0.385 ± 0.0066 | 0.341 ± 0.012
FFSGSVFMAVSL | 0.387 ± 0.011 | 0.44 ± 0.0097 | 0.444 ± 0.04 | 0.399 ± 0.017 | 0.467 ± 0.036 | 0.433 ± 0.02 | 0.37901 ± 0.00016 | 0.408 ± 0.008
SQVILFFLSLCR | 0.607 ± 0.024 | 0.654 ± 0.011 | 0.494 ± 0.024 | 0.619 ± 0.0082 | 0.485 ± 0.011 | 0.4977 ± 0.0029 | 0.61 ± 0.022 | 0.552 ± 0.08
LSFYLRAVRASL | 0.777 ± 0.092 | 0.782 ± 0.009 | 0.629 ± 0.015 | 0.7101 ± 0.0032 | 0.562 ± 0.037 | 0.565 ± 0.027 | 0.673 ± 0.015 | 0.522 ± 0.035
VLLLRRPLLVFS | 0.0781 ± 0.025 | 0.105 ± 0.037 | 0.149 ± 0.028 | 0.229 ± 0.014 | 0.128 ± 0.017 | 0.148 ± 0.024 | 0.187 ± 0.0061 | 0.244 ± 0.021
VLSLYWLIISRL | 0.717 ± 0.04 | 0.736 ± 0.0093 | 0.616 ± 0.016 | 0.742 ± 0.012 | 0.446 ± 0.021 | 0.42 ± 0.0056 | 0.566 ± 0.021 | 0.4672 ± 0.00061
RYKIEKKKLMNN | 0.667 ± 0.019 | 0.741 ± 0.18 | 0.602 ± 0.01 | 0.7361 ± 0.003 | 0.182 ± 0.0036 | 0.235 ± 0.035 | 0.448 ± 0.048 | 0.42 ± 0.038
